# Source: patent US20180244802A1 (DEUTSCHES ZENTRUM FUR NEURODEGENERATIVE ERKRANKUNGEN E V …, published 2018)
# B1: 007-169 (antibody, V domains shown)
# VH: EVQLVQSGAEVKKPGESLKISCKGSGYSFTSYWIGWVRQMPGKGLEWMGIIYPGDSDTRYSPSFQGQVTISADKSISTAYLQWSSLKASDTAMYYCARDYGDYYFDYWGQGTLVTVSS
# VL: QSALTQPRSVSGSPGQSVTISCTGTSSDVGGYNYVSWYQQHPGKAPKLMIYDVSKRPSGVPDRFSGSKSGNTASLTISGLQAEDEADYYCCSYAGSYTGVFGEGTKLTVL
# notes: also called 007-169-HC; 007-169-LC
# B2: 007-142 (antibody, V domains shown)
# VH: B1 VH
# VL: LTQPRSVSGSPGQSVTISCTGTSSDVGGYNYVSWYQQHPGKAPKLMIYDVSKRPSGVPDRFSGSKSGNTASLTISGLQAEDEADYYCCSYAGSYTGVFGGGTKLTVL
# notes: also called 007-142-HC; 007-142-LC
# B3: 007-168 (antibody, human IgG1, V domains shown)
# VH: VQLVQSGAEAKKPGESLKISCKASGYSFTTFWIGWVRQMPGSGLEWIGIIYPGDSDTRYSPSFQGHVTISADRSTSTAYLQWSSLKASDTAMYYCARSAVFDYWGQGTLVTVSS
# VL: EIVMTQSPATLSVSPGGRATLSCRASQSVSSNLAWYQQKPGQAPRLLIYGASTRATGIPVRFSGSGSGTEFTLTISSLQSEDFAVYYCQQYNNWPTSWTFGQGTKVEIK
# B4: 003-109 (antibody, V domains shown)
# VH: VQLVESGGGVVQPGRSLRLSCAASGFTFSSYGMHWVRQAPGKGLEWVAVIWYDGSNKYYADSVKGRFTISRDNSKNTLYLQMNSLRAEDTAVYYCARRHYDFDAFDIWGQGTMVTVSS
# VL: QSALTQPASVSGSPGQSITISCTGTSSDVGGYNYVSWYQQHPGKAPKLMIYEVSNRPSGVSNRFSGSKSGNTASLTISGLQAEDEADYYCSSYTSSSTLYVFGTGTKVTVL
# notes: also called 003-109-HC; 003-109-LC
# B5: 008-218 (antibody, human IgG1, V domains shown)
# VH: EVQLVESGGGLVQPGRSLRLSCAASGFTFDDYAMHWVRQVPGKGLEWVSGISWSSGSIGYADSVKGRFTISRDNAKNSLYLQMNSLRAEDTALYYCAKDRASSWYAYGMDVWGQGTLVTV
# VL: NFMLTQPHSVSESPGKTVTISCTRSSGSIASNYVQWYQQRPGSSPTTVIYDDNQRPSGVPNRFSGSIDSSSNSASLIISGLKTEDEADYYCQSTRVFGGGTKLTVL
# notes: also called 008-218-HC; 008-218-LC
# B6: 007-124 (antibody, human IgG1, V domains shown)
# VH: EVQLVESGGGVGRPGGSLRLSCAASGFTFDDYGMSWVRQVPGKGLEWVSGINWSGADTGYADSVKGRFTISRDNAKNSLYLQMNSLRVEDTALYHCAREVGIAVTGYWFDPWGQGTLVTV
# VL: SYELTQPPSVSVAPGQTARISCGGNHSESVHWYQQKPGQAPVLVVYDDSDRPSGIPERFSGSKSGNTATLTISRVEGGDEAEYYCQVWDSSSDHPGVVFGGGTKLTVL
# notes: also called 007-124-HC; 007-124-LC
# Biological target: T1, NR1 construct with mutation N368Q (human, UniProt Q05586 19-938)
# T1 construct: whole, on cells; also called mutated NR1 construct; the mutant
# Experiment: immunofluorescence staining of HEK293 cells transfected with NR1 N368Q
# Procedure: The cDNA of the human ionotropic glutamate N-methyl-D-aspartate 1 receptor (GRIN1) was kindly provided by Prof. Dr. Wanker (MDC, Berlin) and cloned into pBudCE4.1 (Life Technologies). NR1 DNA (1 μg) was mixed with 3 μg PEI and 100 μl 150 mM NaCl, vortexed and incubated for 10 min, and HEK293 cells were transiently transfected. Two days later, HEK293 cells on cover slips were fixed with methanol at −20° C. for 4 min. In addition, HEK293 cells transfected with a different NMDAR clone, leucine-rich glioma-inactivated 1 (LGI1), contactinassociated protein 2 (Caspr2), α-amino-3-hydroxy-5-methyl-4-isoxazolepropionic acid (AMPA) receptor, and gamma-aminobutyric acid b (GABAb) receptor were used (Autoimmune-Enzephalitis-Mosaik 1, Euroimmun, Lübeck, Germany). For staining with monoclonal antibodies and control antibodies, cells were washed in PBS, preincubated with 5% normal goat serum containing 2% bovine serum albumin and 0.1% Triton X-100, and incubated with antibodies starting at a 1:2 dilution of the cell culture supernatant overnight at 4° C. Secondary fluorescently labeled anti-human IgG antibodies were used for visualization. Sections were washed in PBS and coverslips mounted with Immu-Mount (ThermoScientific).
# Point mutation N368Q was introduced into the NR1 construct using the Stratagene QuikChange Mutagenesis kit according to manufacturer's instructions and the mutant transiently transfected into HEK293 cells as described previously (Doss et al, 2014). Staining of HEK293 cells expressing natural and mutated NR1 construct was performed as described above.
row,Binder,binding result
1,B1,no binding
2,B2,no binding
3,B3,no binding
4,B4,no binding
5,B5,no binding
6,B6,no binding
